The target of this experiment is skeletal muscle ryanodine receptor (RyR1) purified from sheep skeletal muscle, homotetramer (sheep (endogenous in skeletal muscle)). The experiment can be described thus: negative-stain TEM.

One may read the stoichiometry N as the number of molecules, sites or subunits per partner or assembly.

Regarding “skeletal muscle ryanodine receptor (RyR1) purified from sheep skeletal muscle, homotetramer”, the stoichiometry N amounted to 4.
